Results from patent US20110135643A1 (BETH ISRAEL DEACONESS MEDICAL CENTER, published 2011).

Target: T1, human HLA-A2.1 (HLA-A*0201) class I molecule on the surface of T2 cells (human)
T1 construct: whole, on cells; The b2m chain is added because surface class I carries it
Assay: MHC stabilization and dissociation assay on T2 cells, BB7.2 staining, flow cytometry
Protocol: Briefly, T2 cells were cultured for 6 hours in serum-free IMDM (ATCC) prior to the addition of candidate peptides at a concentration of 50 μg/250×10³ cells/ml and incubated overnight at 37° C. […] Cells were then washed three times with PBS and analyzed by flow cytometry. […] The relative binding affinity of a given peptide was calculated as MFI_{(peptide)}/MFI_{(negative peptide)}.
T2 cells were incubated overnight with 50 μg/ml of each candidate peptide at 37° C. in serum-free Iscove's Modified Dulbecco's Medium (IMDM). Cells were then incubated with Brefeldin A (Sigma, St. Louis, Mo.) at 10 μg/ml for 1 hour, washed, and incubated at 37° C. for 0, 2, 4 or 6 hours in the presence of Brefeldin A (50 ng/ml). Cells were then stained with BB7.2 mAb. For each time point, peptide-induced HLA-A2.1 expression was calculated as the difference of the mean fluorescence of peptide-loaded T2 cells and mean fluorescence of negative peptide-loaded T2 cells. The rate of dissociation is reflected by the loss of A2.1 expression over time.

Row | Binder | binding result
1 | TLDGFVFVV (9-mer peptide of SIM2) [SIM2(87)] | binds
2 | YQIVGLVAV (9-mer peptide of SIM2) [SIM2(205)] | binds
3 | KLIFLDSRV (9-mer peptide of SIM2) [SIM2(241)] | binds
4 | FLDSRVTEV (9-mer peptide of SIM2) [SIM2(244)] | binds
5 | SLDLKLIFL (9-mer peptide of SIM2) [SIM2(237)] | binds
